One data set concerns IFIT1 (human). The data set can be described thus: primer extension inhibition (toeprinting). The note with it: 5' cap0 (m7GpppN, no 2'-O-methylation; ScriptCap); Toeprinting at equilibrium, [IFIT1] >= 10x [mRNA]; binding buffer, salt, pH and temperature not in the material (complexes assembled in 20 mM Tris pH 7.5 …).
In data set [1] the test system is IFIT1;IFIT3 (human;human). In words: primer extension inhibition (toeprinting). The note with it: 5' cap0 (m7GpppN, no 2'-O-methylation; ScriptCap); Toeprinting at equilibrium, [IFIT1] >= 10x [mRNA]; binding buffer, salt, pH and temperature not in the material (complexes assembled in 20 mM Tris pH 7.5 …).
In data set [2] the test system is IFIT1;IFIT2;IFIT3 (human;human;human). In words: primer extension inhibition (toeprinting). The settings on record: 5' cap0 (m7GpppN, no 2'-O-methylation; ScriptCap); Toeprinting at equilibrium, [IFIT1] >= 10x [mRNA]; binding buffer, salt, pH and temperature not in the material (complexes assembled in 20 mM Tris pH 7.5 …).
Data set [3] addresses IFIT2 (recombinant) (human) (UniProt P09913). In words: SEC-MALS; equal amounts of IFIT2 and IFIT3 mixed and incubated at 4°C for 1 h, SEC buffer. In general terms: In gel filtration, larger molecules generally elute earlier.
Data set [4] shares this target. In words: SEC-MALS; each protein alone at varying concentrations; Superdex 200 Increase 10/300, room temperature, 20 mM Tris pH 7.5, 150 mM KCl, 1 mM DTT.

Here are results for two substances from paper PMC6007307.

“And” between values parts separate entries of the source, which are not always exact repeats. Equal entries are not always repeated.

Sequence of IFIT2 (recombinant) (P09913 whole entry): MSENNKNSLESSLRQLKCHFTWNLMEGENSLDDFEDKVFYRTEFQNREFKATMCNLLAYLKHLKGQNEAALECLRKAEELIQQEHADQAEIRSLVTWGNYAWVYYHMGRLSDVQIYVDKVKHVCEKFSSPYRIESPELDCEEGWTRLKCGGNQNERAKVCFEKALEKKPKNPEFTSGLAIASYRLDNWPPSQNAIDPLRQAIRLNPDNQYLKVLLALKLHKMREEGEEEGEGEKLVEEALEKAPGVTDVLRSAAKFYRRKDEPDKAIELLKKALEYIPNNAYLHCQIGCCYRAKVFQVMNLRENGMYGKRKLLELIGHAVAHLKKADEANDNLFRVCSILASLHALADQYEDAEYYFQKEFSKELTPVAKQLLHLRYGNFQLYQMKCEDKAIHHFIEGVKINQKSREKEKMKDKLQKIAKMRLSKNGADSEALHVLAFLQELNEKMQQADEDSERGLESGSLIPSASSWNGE

For cap0-β-globin Fluc mRNA, the K half in the data set on IFIT1 (human) turned out to be 40 nM; in data set [1], 19 nM; in data set [2], 19 nM.
Consider “IFIT2 (recombinant) (from UniProt P09913 1-472) (natural protein)”, for which the stoichiometry N in data set [3] is 2; in data set [4] it was 2 and 4.

Usually stoichiometry N stands for a count of units in the complex or per binding partner.
